# Assay results as given in patent publication US20260116956A1, “ANTIBODY BASED TREATMENT TO REDUCE GUT BACTERIAL GLYCAN AND ASSOCIATED BACTERIA” (priority 2022, published 2026).
# Numbering of substitutions follows the chain as printed. Where two headings read alike, the source gives them in different places.
# B1: mAb 33.2.2: murine monoclonal anti-R. gnavus lipoglycan antibody; VH SEQ ID NO: 4, VL SEQ ID NO: 9 (antibody, V domains shown)
# VH: EVQLQESGPSLVKPSQTLSLTCSVTGDSITSGYWNWIRKFPGNKLEYLGYINYSGSTYYNPSLRSRISITRDTSKNQYYLQLNAVTTEDTATYYCARYYYHDDSYAMDNWGQGTSVTVSS
# VL: DIQMNQSPSSLSASLGDTITITCHASQNINVWLSWFQQKPGNIPKLLIYKASNLHTGVPSRFSGTGSGTGFTLTISSLQPEDIATYYCQQGQSYPLTFGAGTKLELK
# B2: mAb 34.2.2: murine monoclonal anti-R. gnavus lipoglycan antibody; VH SEQ ID NO: 13, VL SEQ ID NO: 15 (antibody, V domains shown)
# VH: B1 VH with L48M, S56T, R64K, A84S, H101Y, D103S, N109Y
# VL: B1 VL with T65S
# Key:
# [1] = system: intestinal permeability of RG strain colonized mice; details: 0.15 mg/ml in drinking water, 10 days
# Protocol: For each group mean+/−standard deviation (SD) (FIG. 9A). […] For the bottom panels, significance was tested by paired t test. *p<0.05 was considered statistically significant.
# In vivo assay of intestinal permeability. To assess intestinal permeability, after a 4-hours fasting from food and water, mice were orally gavaged with 4,000-Da fluorescein (FITC)-dextran (FD4) (Sigma-Aldrich, St. Louis, MO) (250 mg/kg body weight) in doses of 200 μl, and blood was collected 3 hours later. The concentration of the FD4 was determined using a fluorimeter with an excitation wavelength of 490 nm and an emission wavelength of 530 nm. To assess concentration, FD4 in serum was then serially diluted to establish a standard curve.
# Leaky gut recovery studies. Zonulin antagonist, larazotide acetate (known as AT-1001, or INN-202), was purchased from BOC Sciences, NY. Individual neonatally-colonized littermates from SPF mice, colonized with different RG strains, were retested after FD4 challenge, and those with abnormal levels then each received 0.15 mg/ml of the zonulin antagonist in drinking water, which was refreshed every day, for 10 consecutive days. After 24 hours rest, intestinal permeability was then retested.
# [2] = system: purified LG from the S47-18 strain; experiment: Direct binding ELISA, purified lipoglycan from S47-18 strain; parameters: species or system Ruminococcus gnavus; details: antigen coated on ELISA plate
# Protocol: (§1) In this assay, LG or nuclease-treated RG strain extracts were precoated overnight onto the well, then after blocking with bovine serum albumin, the mAbs, or isotype control at 1 μg/ml were incubated for 4 hours, then washed and developed (see below-described methods) (FIG. 15A). Immunoblot with mAb 33.2.3 (FIG. 15B) and immunoblot with 34.2.2 mAb (FIG. 15C), detect antigenically related LG oligobands in extracts of R. gnavus strains isolated from active Lupus nephritis strains. In each panel is shown samples of purified lipoglycan from the Lupus S47-18 strain, and the RG2 strain of R. gnavus. […]
# (§2) Assays of antigen-reactive IgG antibodies. […] For ELISA bound IgG antibodies were detected with Fc-gamma-specific anti-murine IgG HRP (eBioscience, San Diego CA), and for multiplex bead-based assay with anti-mouse IgG (Fc-specific) F(ab′)2 PE (Jackson ImmunoResearch, West Grove PA). Data were acquired on a Magpix instrument (Luminex) and reported as mean fluorescence intensity (MFI) values, as previously described (Pelzek et al., 2017; Pelzek et al., 2018a; Radke et al., 2018). Plasma zonulin were quantitated with a commercial ELISA Kit. […]
# (§3) Direct binding ELISA. […] Binding was detected with goat anti mouse IgG HRP conjugated at 1:10,000 (Jackson ImmunoResearch), then TMB substrate was added to develop the plate.
# [3] = system: extract of the RG2 strain; experiment: Immunoblot, RG2 extract; format: binding, Ruminococcus gnavus
# Protocol: (§4) LPS from a Pseudomonas species.
# (§5) In this assay, LG or nuclease-treated RG strain extracts were precoated overnight onto the well, then after blocking with bovine serum albumin, the mAbs, or isotype control at 1 μg/ml were incubated for 4 hours, then washed and developed (see below-described methods) (FIG. 15A). Immunoblot with mAb 33.2.3 (FIG. 15B) and immunoblot with 34.2.2 mAb (FIG. 15C), detect antigenically related LG oligobands in extracts of R. gnavus strains isolated from active Lupus nephritis strains. In each panel is shown samples of purified lipoglycan from the Lupus S47-18 strain, and the RG2 strain of R. gnavus. At left, extracts of whole bacteria are shown for the RG1 strain (from a healthy donor), and the Lupus-derived strains; S107-48, S107-86, S47-18, and for the RG2 strain.
# (§6) To generate RG-specific monoclonal antibodies, 10 BALB/c mice were immunized with extract of the (CC55_001C), termed RG2 strain, emulsified in complete Freund's adjuvant and then boosted with lipoglycan (LG) purified from the Lupus S47-18 strain emulsified in incomplete Freund's adjuvant. The spleen from the mouse with the strongest post-immunization was fused with the NS-1 myeloma cells.
# (§7) Immunoblotting. […]
# [4] = system: bacterial extract of Lupus strain S107-48; experiment: Direct binding ELISA, S107-48 bacterial extract; parameters: species or system Ruminococcus gnavus; details: extract coated on ELISA plate
# Protocol: as §1, §2, §3
# [5] = system: bacterial extract of the RG2 strain (CC55_001C); experiment: Direct binding ELISA, RG2 bacterial extract; parameters: species or system Ruminococcus gnavus; details: extract coated on ELISA plate
# Protocol: as §5
# (§8) Assays of antigen-reactive IgG antibodies. A custom multiplex bead-based array for the Magpix platform (Luminex, Austin TX) was created by coupling a variety of highly purified thymic native DNAs, purified cell wall lipoglycan (LG) from the RG2 strain (i.e., IgG anti-RG2 LG (formerly termed LG3) (Azzouz et al., 2019)), and the Lupus RG strain S47-18 (i.e., IgG anti-S47-18 strain LG), recombinant S. aureus proteins, endotoxins, and other bacterial antigens and control ligands, to individual microspheres, adapting the manufacturer's protocol and previous reports (Pelzek et al., 2017; Pelzek et al., 2018b; Radke et al., 2018). For antigen-reactive IgG detection, 1,000 microspheres per analyte per well were premixed, sonicated, and then diluted with addition of 100 μl of serum, as indicated. For ELISA bound IgG antibodies were detected with Fc-gamma-specific anti-murine IgG HRP (eBioscience, San Diego CA), and for multiplex bead-based assay with anti-mouse IgG (Fc-specific) F(ab′)2 PE (Jackson ImmunoResearch, West Grove PA). Data were acquired on a Magpix instrument (Luminex) and reported as mean fluorescence intensity (MFI) values, as previously described (Pelzek et al., 2017; Pelzek et al., 2018a; Radke et al., 2018). Plasma zonulin were quantitated with a commercial ELISA Kit. (MyBioSource, San Diego CA.).
# (§9) Direct binding ELISA. To detect the reactivity of the murine monoclonal antibodies (mAb) […] and mAb 34.2.2 with the different RG strains, the ELISA plates were coated with the bacterial extracts from RG2, S47-18, S107-48, S107-86, RG1 as well as with the purified lipoglycan from the strains RG2 and S47-18. Next, the murine monoclonal antibodies were added at two concentrations (at 100 ng/ml and 25 ng/ml) in duplicate, incubated for 2 h at RT. Binding was detected with goat anti mouse IgG HRP conjugated at 1:10,000 (Jackson ImmunoResearch), then TMB substrate was added to develop the plate.
# extract of RG1 strain = experiment: Immunoblot, RG1 extract; format: binding, Ruminococcus gnavus; details: strain from a healthy donor, lacks the lipoglycan
# Protocol: as §4, §5, §6, §7
# [6] = system: extract of Lupus RG strain S107-86; experiment: Immunoblot, S107-86 extract; format: binding, Ruminococcus gnavus
# Protocol: as §5
# (§10) Immunoblotting. Electrophoretic separation used Bis-Tris mini gels (Novex, Thermo Fisher) with bacterial extracts loaded at the same concentration, then transferred to membranes, which were incubated with sera diluted at 1:100, and incubated overnight at 4° C. For detection, anti-human IgG biotin conjugated (Jackson ImmunoResearch Labs, USA) was added and developed by IRDye® 800CW Streptavidin (LI-COR®).
# [7] = system: purified LG from the S47-18 strain; experiment: Immunoblot, purified lipoglycan from S47-18 strain; format: binding, Ruminococcus gnavus
# Protocol: as §5, §10
# [8] = system: extract of the RG1 type strain (ATCC29149); experiment: Direct binding ELISA, RG1 bacterial extract; parameters: species or system Ruminococcus gnavus; details: extract coated on ELISA plate; strain lacks the lipoglycan
# Protocol: as §1, §2, §3
# [9] = system: purified LG from RG2 (RG2-LG); experiment: Immunoblot, purified lipoglycan from RG2 strain; format: binding, Ruminococcus gnavus
# Protocol: as §4, §5, §10
# [10] = system: extract of Lupus RG strain S107-48; experiment: Immunoblot, S107-48 extract; format: binding, Ruminococcus gnavus
# Protocol: as §4, §5, §6, §7
# [11] = system: bacterial extract of Lupus strain S47-18; experiment: Direct binding ELISA, S47-18 bacterial extract; parameters: species or system Ruminococcus gnavus; details: extract coated on ELISA plate
# Protocol: as §5, §8, §9
# [12] = system: extract of Lupus RG strain S47-18; experiment: Immunoblot, S47-18 extract; format: binding, Ruminococcus gnavus
# Protocol: as §4, §5, §6, §7
# [13] = system: bacterial extract of Lupus strain S107-86; experiment: Direct binding ELISA, S107-86 bacterial extract; parameters: species or system Ruminococcus gnavus; details: extract coated on ELISA plate
# Protocol: as §5, §8, §9
# [14] = system: purified LG from the RG2 strain; experiment: Direct binding ELISA, purified lipoglycan from RG2 strain; parameters: species or system Ruminococcus gnavus; details: antigen coated on ELISA plate
# Protocol: as §5, §8, §9
Molecule,ELISA reactivity with purified LG from S47-18 strain [2],Immunoblot reactivity with LG oligobands in RG2 extract [3],ELISA reactivity with extract of Lupus strain S107-48 [4],ELISA reactivity with extract of RG2 strain [5],Immunoblot reactivity with RG1 extract (extract of RG1 strain),Immunoblot reactivity with LG oligobands in S107-86 extract [6],Immunoblot reactivity with purified LG from S47-18 strain [7],ELISA reactivity with RG1 type strain extract [8],Immunoblot reactivity with purified LG from RG2 strain [9],Immunoblot reactivity with LG oligobands in S107-48 extract [10],ELISA reactivity with extract of Lupus strain S47-18 [11],Immunoblot reactivity with LG oligobands in S47-18 extract [12],ELISA reactivity with extract of Lupus strain S107-86 [13],ELISA reactivity with purified LG from RG2 strain [14],other results
larazotide acetate,,,,,,,,,,,,,,,"Gut barrier function (plasma FD4 after challenge), before vs after treatment ([1]; Lupus S47-18 strain colonized mice, p=0.01): normalized; Gut barrier function (plasma FD4 after challenge), before vs after treatment ([1]; Lupus S107-48 strain colonized mice, p=0.01): normalized; Gut barrier function (plasma FD4 after challenge), before vs after treatment ([1]; RG2 strain colonized mice, p=0.03): normalized"
B1,strongly react,recognized oligoband antigen,reactive,reactive,no reactivity,recognized oligoband antigen,bound,non-reactive,bound,recognized oligoband antigen,reactive,recognized oligoband antigen,reactive,strongly react,ELISA reactivity with extract of RG2 strain ([5]; listed as 33.2.3): reactivity; ELISA reactivity with extract of Lupus strain S47-18 ([11]; listed as 33.2.3): reactivity; ELISA reactivity with extract of Lupus strain S107-86 ([13]; listed as 33.2.3): reactivity; ELISA reactivity with purified LG from RG2 strain ([14]; listed as 33.2.3): reactivity
B2,strongly react,recognized oligoband antigen,reactive,reactive,no reactivity,recognized oligoband antigen,bound,non-reactive,bound,recognized oligoband antigen,reactive,recognized oligoband antigen,reactive,strongly react,ELISA reactivity with extract of RG2 strain ([5]; listed as 34.2.2): reactivity; ELISA reactivity with extract of Lupus strain S47-18 ([11]; listed as 34.2.2): reactivity; ELISA reactivity with extract of Lupus strain S107-86 ([13]; listed as 34.2.2): reactivity; ELISA reactivity with purified LG from RG2 strain ([14]; listed as 34.2.2): reactivity
